Where a chain is given by its changes, count along the chain named. Names may count otherwise.
B1: GPC3-A H1.1_L1.69 in the 1+1 Fab-scFv-Fc bsAb format (bispecific antibody)
heavy: QVQLVQSGAEVKKPGASVKVSCKASGYTFTDYEMHWVRQAPGQGLEWMGALEPKTGDTAYSQKFQGRVTMTADKSISTAYMELSRLRSDDTAVYYCTRFYSYTYWGQGTLVTVSSASTKGPSVFPLAPSSKSTSGGTAALGCLVKDYFPEPVTVSWNSGALTSGVHTFPAVLQSSGLYSLSSVVTVPSSSLGTQTYICNVNHKPSDTKVDKKVEPKSCDKTHTCPPCPAPPVAGPSVFLFPPKPKDTLMISRTPEVTCVVVDVKHEDPEVKFNWYVDGVEVHNAKTKPREEEYNSTYRVVSVLTVLHQDWLNGKEYKCKVSNKALPAPIEKTISKAKGQPREPQVYTLPPSREEMTKNQVSLTCDVSGFYPSDIAVEWESDGQPENNYKTTPPVLDSDGSFFLYSKLTVDKSRWEQGDVFSCSVMHEALHNHYTQKSLSLSPGK
scFv-Fc: not shown
light: DVVMTQSPLSLPVTLGQPASISCRSSQSLVHSNANTYLHWYQQRPGQSPRLLIYQVSNRFSGVPDRFSGSGSGTDFTLKISRVEAEDVGVYFCSQNTHVPPTFGSGTKLEIKRTVAAPSVFIFPPSDEQLKSGTASVVCLLNNFYPREAKVQWKVDNALQSGNSQESVTEQDSKDSTYSLSSTLTLSKADYEKHKVYACEVTHQGLSSPVTKSFNRGEC
notes: also called [GPC3]H1.1_L1.69
B2: GPC3-A H1.1_L1.73 in the 1+1 Fab-scFv-Fc bsAb format (bispecific antibody)
heavy: B1 heavy
scFv-Fc: not shown
light: B1 light with A34K, Q55Y
notes: also called [GPC3]H1.1_L1.73
B3: XENP36941 (GPC3-A H1.1_L1.29 formatted as 1+1 Fab-scFv-Fc with CD3 High-Int #1 scFv) (bispecific antibody)
heavy: B1 heavy
scFv-Fc: not shown
light: B1 light with A34G
notes: 1+1 Fab-scFv-Fc, human IgG1 heterodimeric backbone; treated as one molecule; also called [GPC3]H1.1_L1.29
B4: XENP35843 (GPC3-A H1.1_L1.16 formatted as 1+1 Fab-scFv-Fc with CD3 High-Int #1 scFv) (bispecific antibody)
heavy: B1 heavy
scFv-Fc: not shown
light: B1 light with N33S, A34G, Q55K, N96S
notes: 1+1 Fab-scFv-Fc, human IgG1 heterodimeric backbone; treated as one molecule; also called [GPC3]H1.1_L1.16
B5: GPC3-A H1.1_L1.6 formatted as 1+1 Fab-scFv-Fc with CD3 High-Int #1 scFv (bispecific antibody)
heavy: B1 heavy
scFv-Fc: not shown
light: B1 light with A34T, Q55K
notes: 1+1 Fab-scFv-Fc: VH-CH1-hinge-CH2-CH3 chain and VL-CL light chain form the GPC3 Fab, plus an scFv-Fc chain; also called [GPC3]H1.1_L1.6
B6: GPC3-A variable heavy variant H1.1 (D52E) with L1 (antibody, V domains shown)
VH: QVQLVQSGAEVKKPGASVKVSCKASGYTFTDYEMHWVRQAPGQGLEWMGALEPKTGDTAYSQKFQGRVTMTADKSISTAYMELSRLRSDDTAVYYCTRFYSYTYWGQGTLVTVSS
VL: DVVMTQSPLSLPVTLGQPASISCRSSQSLVHSNGNTYLHWYQQRPGQSPRLLIYKVSNRFSGVPDRFSGSGSGTDFTLKISRVEAEDVGVYFCSQNTHVPPTFGSGTKLEIK
notes: pairing with L1 follows from the library being made on humanized GPC3-A and from pair c) of claim 53; also called [GPC3]H1.1_L1
B7: GPC3-A variable light variant L1.6 (G29T) with H1 (antibody, V domains shown)
VH: B6 VH with E52D
VL: DVVMTQSPLSLPVTLGQPASISCRSSQSLVHSNTNTYLHWYQQRPGQSPRLLIYKVSNRFSGVPDRFSGSGSGTDFTLKISRVEAEDVGVYFCSQNTHVPPTFGSGTKLEIKR
notes: pairing with H1 follows from the library being made on humanized GPC3-A and from pair l) of claim 53; also called [GPC3]H1_L1.6
B8: XENP 23064 H1_L1.1 (antibody, human IgG1, kappa, V domains shown)
VH: B6 VH with E52D
VL: B7 VL with N33Q, T34G
notes: VH WT, VL mutation (Kabat) N28Q; also called [GPC3]H1_L1.1; VL N28Q; copies: 2 + 2
B9: XENP 23066 H1_L1.3 (antibody, human IgG1, kappa, V domains shown)
VH: B6 VH with E52D
VL: B7 VL with N33S, T34G
notes: VH WT, VL mutation (Kabat) N28S; also called [GPC3]H1_L1.3; VL N28S; copies: 2 + 2
B10: XENP 23073 H1_L1.10 (antibody, human IgG1, kappa, V domains shown)
VH: B6 VH with E52D
VL: B7 VL with T34G, N35H
notes: VH WT, VL mutation (Kabat) N30H; also called [GPC3]H1_L1.10; VL N30H; copies: 2 + 2
B11: XENP 23063 H1.4_L1 (antibody, human IgG1, kappa, V domains shown)
VH: B6 VH with E52S
VL: B7 VL with T34G
notes: VH mutation (Kabat) D52S, VL WT; also called [GPC3]H1.4_L1; VH D52S; copies: 2 + 2
B12: XENP 23065 H1_L1.2 (antibody, human IgG1, kappa, V domains shown)
VH: B6 VH with E52D
VL: B7 VL with N33Y, T34G
notes: VH WT, VL mutation (Kabat) N28Y; also called [GPC3]H1_L1.2; VL N28Y; copies: 2 + 2
B13: humanized GPC3-A H1_L1 (antibody, V domains shown)
VH: B6 VH with E52D
VL: B6 VL
notes: also called [GPC3]H1_L1
B14: XENP 23072 H1_L1.9 (antibody, human IgG1, kappa, V domains shown)
VH: B6 VH with E52D
VL: B7 VL with T34G, N35Y
notes: VH WT, VL mutation (Kabat) N30Y; also called [GPC3]H1_L1.9; VL N30Y; copies: 2 + 2
B15: XENP 23061 H1.2_L1 (antibody, human IgG1, kappa, V domains shown)
VH: B6 VH with E52N
VL: B7 VL with T34G
notes: VH mutation (Kabat) D52N, VL WT; also called [GPC3]H1.2_L1; VH D52N; copies: 2 + 2
B16: XENP 23070 H1_L1.7 (antibody, human IgG1, kappa, V domains shown)
VH: B6 VH with E52D
VL: B7 VL with T34K
notes: VH WT, VL mutation (Kabat) G29K; also called [GPC3]H1_L1.7; VL G29K; copies: 2 + 2
B17: XENP 23068 H1_L1.5 (antibody, human IgG1, kappa, V domains shown)
VH: B6 VH with E52D
VL: B7 VL with T34A
notes: VH WT, VL mutation (Kabat) G29A; also called [GPC3]H1_L1.5; VL G29A; copies: 2 + 2
B18: XENP 23071 H1_L1.8 (antibody, human IgG1, kappa, V domains shown)
VH: B6 VH with E52D
VL: B7 VL with T34G, N35Q
notes: VH WT, VL mutation (Kabat) N30Q; also called [GPC3]H1_L1.8; VL N30Q; copies: 2 + 2
B19: XENP 23062 H1.3_L1 (antibody, human IgG1, kappa, V domains shown)
VH: B6 VH with E52Q
VL: B7 VL with T34G
notes: VH mutation (Kabat) D52Q, VL WT; also called [GPC3]H1.3_L1; VH D52Q; copies: 2 + 2
B20: XENP 23067 H1_L1.4 (antibody, human IgG1, kappa, V domains shown)
VH: B6 VH with E52D
VL: B7 VL with N33H, T34G
notes: VH WT, VL mutation (Kabat) N28H; also called [GPC3]H1_L1.4; VL N28H
B21: XENP34364_GPC3-A_H1.1__L1.29 (bispecific antibody)
heavy: B1 heavy
scFv-Fc: not shown
light: B1 light with A34G
notes: Another XENP number than XENP36941, which has the same GPC3 Fv
B22: XENP34368_GPC3-A_H1.1__L1.31 (bispecific antibody)
heavy: B1 heavy
scFv-Fc: not shown
light: B1 light with A34G, Q55Y
notes: Another XENP number than XENP36140, which has the same GPC3 Fv; copies: 1 + 1 + 1
B23: XENP21971_GPC3-A_H1_L1 (bispecific antibody)
heavy: B1 heavy with E52D
scFv-Fc: not shown
light: B1 light with A34G, Q55K
notes: the sheet prints H1_L1; copies: 1 + 1 + 1
B24: XENP34365_GPC3-A_H1.1__L1.16 (bispecific antibody)
heavy: B1 heavy
scFv-Fc: not shown
light: B1 light with N33S, A34G, Q55K, N96S
notes: Another XENP number than XENP35843, which has the same GPC3 Fv
B25: XENP36936 H1.1_L1.70 (bispecific antibody)
heavy: B1 heavy
scFv-Fc: not shown
light: B1 light with A34K
notes: also called [GPC3]H1.1_L1.70; VL G29K K50Q; copies: 1 + 1 + 1
B26: XENP36933 H1.1_L1.67 (bispecific antibody)
heavy: B1 heavy
scFv-Fc: not shown
light: B1 light with A34K, Y37W, Q55K
notes: also called [GPC3]H1.1_L1.67; VL G29K Y32W; copies: 1 + 1 + 1
B27: XENP36934 H1.1_L1.68 (bispecific antibody)
heavy: B1 heavy
scFv-Fc: not shown
light: B1 light with N33Y, A34G
notes: also called [GPC3]H1.1_L1.68; VL N28Y K50Q; copies: 1 + 1 + 1

molecular target: T1, His-tagged human GPC3 (human, UniProt P51654 25-559, limits assumed); experiment: affinity label of the GPC3 binding domain; Octet (BLI) of Example 2
T1 construct: Captured on HIS1K sensors in the Octet assay; also called human GPC3 antigen; Glypican 3; not shown: His tag
Protocol: (§1) After humanization, GPC3 binding arms were engineered with single point mutations in the variable light domain with the aim to create a ladder of GPC3 binding affinity, illustrative sequences for which are depicted in FIG. 13. 73 variable light domain variants were engineered and paired with GPC3-A H1.1 (see Example 3C for description of GPC3-A H1.1 variant). The GPC3-A variants were engineered in the 1+1 Fab-scFv-Fc bsAb format and binding for GPC3 antigen was measured using Octet, a BioLayer Interferometry (BLI)-based method. Experimental steps for Octet generally include the following: Immobilization (capture of ligand to a biosensor); Association (dipping of ligand-coated biosensors into wells containing the analyte); and Dissociation (returning of biosensors to well containing buffer). For ease of clinical development (e.g. by investigating the therapeutics in model animals), it is useful for the binding domains to be cross-reactive for cynomolgus antigen; therefore, binding to both human and cynomolgus GPC3 antigen were investigated. His-tagged human and cynomolgus GPC3 were captured on HIS1K sensors then dipped into multiple concentrations of the bispecific antibodies. The resulting dissociation constant (KD) are depicted in FIG. 23.

T1 sequence (P51654 25-559 limits assumed): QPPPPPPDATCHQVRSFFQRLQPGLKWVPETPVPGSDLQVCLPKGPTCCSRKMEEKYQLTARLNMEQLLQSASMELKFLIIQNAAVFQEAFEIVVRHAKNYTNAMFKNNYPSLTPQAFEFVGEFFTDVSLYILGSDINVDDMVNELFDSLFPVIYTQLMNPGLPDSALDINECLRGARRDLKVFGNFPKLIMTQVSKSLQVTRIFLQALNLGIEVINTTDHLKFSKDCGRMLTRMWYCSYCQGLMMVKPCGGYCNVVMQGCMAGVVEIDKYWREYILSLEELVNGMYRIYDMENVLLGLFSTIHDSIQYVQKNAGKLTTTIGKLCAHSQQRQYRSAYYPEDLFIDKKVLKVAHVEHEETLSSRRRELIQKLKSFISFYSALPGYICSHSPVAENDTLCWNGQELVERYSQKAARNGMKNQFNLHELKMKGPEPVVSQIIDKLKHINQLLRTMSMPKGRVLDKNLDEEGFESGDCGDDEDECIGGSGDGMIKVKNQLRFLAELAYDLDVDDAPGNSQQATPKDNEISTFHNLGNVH

Kd [nM]	Binder
70	B1
400	B2

molecular target: T1, His-tagged human GPC3; experiment: Octet (BLI); His-tagged GPC3 captured on HIS1K sensors, bsAb in solution
Protocol: as §1

Kd [nM]	Binder
70	B3
100	B4
4	B5

molecular target: T1, His-tagged human GPC3; experiment: binding assay not named for this figure; human GPC3 per legend paragraph 61

Kd [nM]	Binder
3.92	B6
2.85	B7
28.2	B8
12.7	B9
3.38	B10
3.62	B11
7.43	B12
3.17	B13
1.37	B14
5.81	B15
2.22	B16
2.09	B17
2.35	B18
3.13	B19
11.7	B20

molecular target: T1, His-tagged human GPC3; experiment: Octet (BLI), His-tagged GPC3 captured on HIS1K sensors, bsAb as analyte
Protocol: as §1

Kd [nM]	Binder
70	B21
464	B22
4	B23
93	B24

molecular target: T2, His-tagged cynomolgus GPC3 (cynomolgus, UniProt A0A2K5VK50 24-558); experiment: as above
T2 construct: Captured on HIS1K sensors in the Octet assay; also called cynomolgus GPC3 antigen; cyno GPC3; not shown: His tag
Protocol: as §1

Kd [nM]	Binder
73	B21
485	B22
4	B23
100	B24

molecular target: T1, His-tagged human GPC3; experiment: binding assay not named for this figure; Octet (BLI) is the method of Example 2B
Protocol: as §1

Kd [nM]	Binder
130	B25
150	B1
550	B26
370	B27
477	B2

molecular target: T2, His-tagged cynomolgus GPC3; experiment: as above
Protocol: as §1

Kd [nM]	Binder
130	B25
150	B1
600	B26
370	B27
550	B2

— patent US20240034815A1 (Xencor, published 2024)
